For this test, the target named is CVA8 virion (strain 14-943/GS/CHN/2014) (coxsackievirus A8 (CVA8), strain GS14).

The record followed here is article PMC11796367.

B1: mKrm1-Fc (human IgG1 Fc-fused mouse KRM1 ectodomain) (Fc fusion)
chain: APGPRSGPECFTANGADYRGTQSWTALQGGKPCLFWNETFQHPYNTLKYPNGEGGLGEHNYCRNPDGDVSPWCYVAEHEDGVYWKYCEIPACQMPGNLGCYKDHGNPPPLTGTSKTSNKLTIQTCISFCRSQRFKFAGMESGYACFCGNNPDYWKHGEAASTECNSVCFGDHTQPCGGDGRIILFDTLVGACGGNYSAMAAVVYSPDFPDTYATGRVCYWTIRVPGASRIHFNFTLFDIRDSADMVELLDGYTHRVLVRLSGRSRPPLSFNVSLDFVILYFFSDRINQAQGFAVLYQATKEEPPQERPAVNQTLAEVITEQANLSVSAAHSSKVLYVITPSPSHPPQTAPG
Molecule B1 came in with a neutralization of CVA8 strain GS14 infection of RD cells (cell viability assay) of 0.32 nM.

B2: hKRM1-Fc (human IgG Fc-fused human KRM1 ectodomain) (Fc fusion)
chain: APSPGLGPECFTANGADYRGTQNWTALQGGKPCLFWNETFQHPYNTLKYPNGEGGLGEHNYCRNPDGDVSPWCYVAEHEDGVYWKYCEIPACQMPGNLGCYKDHGNPPPLTGTSKTSNKLTIQTCISFCRSQRFKFAGMESGYACFCGNNPDYWKYGEAASTECNSVCFGDHTQPCGGDGRIILFDTLVGACGGNYSAMSSVVYSPDFPDTYATGRVCYWTIRVPGASHIHFSFPLFDIRDSADMVELLDGYTHRVLARFHGRSRPPLSFNVSLDFVILYFFSDRINQAQGFAVLYQAVKEELPQERPAVNQTVAEVITEQANLSVSAARSSKVLYVITTSPSHPPQTVPG
As to B2, the neutralization of CVA8 strain GS14 infection of RD cells (cell viability assay) turned out to be 0.03 nM.
